# From the nanobody polyreactivity screen of Harvey et al. (2022)
# Assay: yeast display, Sf9 membrane polyspecificity reagent, FACS + sequencing; frameworks hold sequencing errors
# In short: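 In a synthetic yeast display library (Saccharomyces cerevisiae BJ5465), nanobody expression was induced with galactose for 36–48 hours. FACS gates were set low and high (top ~1%) using anti-HA fluorescence for expression and streptavidin fluorescence for binding of the Sf9 membrane reagent. Each polyreactivity label is drawn from the gate of origin.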
row,Sequence,polyreactivity (PSR sort gate)
1,QVQLVESGGGLVQAGGSLRLRCAASGYIFGAYALGWYRQAPGKERELVAAIHVGDASAYYADSVKGRFTISRDNAKKTVYLQMNSLKPEDTAVYYCAKDRGSWEWYTVDYWGQGTQVTVSS,low polyreactivity
2,QVQLVESGGGLVQAGGSLRLRCAASGYTLGPYAMGWYRQAPGKERELVAAISWGGGRTYYADSVKGRFTISRDNAKNTVYLQMNSLKPEDTAVYYCAAKWSHVRDGPKYDYWGQGTQVTVSS,low polyreactivity
3,QVQLVESGGGLVQAGGSLRLRCAAYGSNFVLNAMGLDRKAPGKERELVAAISRGGASTYYADSVKGRFTIARDNSKNTVYLQMTSLKPEDTAVYYCNASGYGQGVVIYLVLYDYWGQGTQVTVSS,low polyreactivity
4,QVQLVESGGGLVQAGGSLRLRSASSGYILFAYAMVWYRQAPGKERELVATISNYGGITYYAESVKGRFTISRDNAKNTVYLQMNRLKPEDNAVYYCAAAEAGGLVTYDYWGQGTQVTVSS,low polyreactivity
5,QVQLVESGGGLVQAGGSLRLSCAAAGLTFQPYVLGWYRQAPGKERELVAAISVRTTRTYYADSVKGRFTISRDNAKNTVYLQMNSLKPEDTAVYYCNVSGVLYPFVSYDYWGQGTHVTVSS,low polyreactivity
6,QVQLVESGGGLVQAGGSLRLSCAAAGRISYANAMGWYRQAPGKERELVASITYSAGSTYADSVKGRFTISRDNAKNTVYLQMNSLKPEDTAVYYCAKRPSQHYRSYLMDYWGQGTQVTVSS,low polyreactivity
7,QVQLVESGGGLVQAGGSLRLSCAAAGSNFLGYAMGWYRQAPGKERELVANITSSGSTSYADSVKGRFTISRDNAKNTVYLQMNSLKPEVTAVYYCAARFRRTYDYWGQGTQVTVSS,high polyreactivity
8,QVQLVESGGGLVQAGGSLRLSCAAAGSTFSYYTMGWYRQAPGKERELVAAITRSGGRTYYADSVKGRFTISRDNAKYTVYLQMNSLKPEDTAVYYCAREYYPDWGQGTQVTVSS,high polyreactivity
9,QVQLVESGGGLVQAGGSLRLSCAACGFTFRYNAMGWYRQAPGKERELVAAITRGGGNTYYADSVKGRFTISRDHAKNTVYLQMNSLKPEDTAVYYCAAYSNGGRYDYGYWGQGTQVTVSS,high polyreactivity
10,QVQLVESGGGLVQAGGSLRLSCAACGGIFWHYTLGWYRKAPGKERELVAAITRRGGSTYYADSVMGRFTISRDNAKNTVYLQMNSLKPEDTAVYYCAADFLPQSYNWYDYWGQGTQVTVSS,low polyreactivity
11,QVQLVESGGGLVQAGGSLRLSCAACGLTFDDYAMGWSRQAPGKERELVAAISKSGDGTYYADSVKGRFTISRDNAKNTVYLQMNSLKPEDTAVYYCNADAKYWGFVYWWFGEDNWGQGTQVPVSS,low polyreactivity
12,QVQLVESGGGLVQAGGSLRLSCAACGRIFGENAMGWYRQAPGKERELVASISSTDSTYYADSVKGRFTISRDNAKNTVYLQMNSLKPEDTAVYYSAARWISVWSEGAEHDYWGQGTQVTVSS,low polyreactivity
13,QVQLVESGGGLVQAGGSLRLSCAACGRIFNRYAMGWYRQAPGKERELVAAIRYSGGRTYYADSVKGRFTISRDNAKNTVYLQMNSLKPEDTAVYYCAADGQWYYAPFRGGDYENDYWGQGTQVTVSS,low polyreactivity
14,QVQLVESGGGLVQAGGSLRLSCAACGSIFYWNAMVWYRQAPGKERELVAAINSGDSTNYADSVKGRFTISRDNAKNTVYFQMNSLKPEDTAVYYCAASIYAALNGGPGYDYWGLGTQVTVSS,low polyreactivity
15,QVQLVESGGGLVQAGGSLRLSCAANGYIFLIYDRGWYRQSPGKEMELVAAISNSVGSTYADSVKGRFTISRDNAKNTDYLQMNSLKPEDTAVYYCNADSGPIDGRGGYWGQGTQVTVSS,low polyreactivity
16,QVQLVESGGGLVQAGGSLRLSCAANTMGCYRQAPGKERELVAAINTGSSTYYADSVKGRFRISRDNAKNTVYLQMYCLKPEDTAVYYCNASYPPYFEYRTRQYNYWGQGTQVTVSS,low polyreactivity

row,Sequence,polyreactivity (PSR sort gate)
1,QVQLVESGGGLVQAGGSLRLSCAAPGSTFYLYAMGWYRQAPGKERELVAAISSGGRTNYADSVKGRFTISRDNAKNTVYLQMNSLKPEDTAVYYCAARIQCPTWSLYYYWGQGTQVTVSS,high polyreactivity
2,QVQLVESGGGLVQAGGSLRLSCAASAFIFRFYTMGWYRQATGKETELVAAITSRGDRTYYADSVKRRFTISRENAKNPVYLQMNSLKPEDTAVYYCAKATRGYRSPYGSIGYYYRGQGTQVTVSS,high polyreactivity
3,QVQLVESGGGLVQAGGSLRLSCAASAGILRQNTMGWYRQAPGKERELVAAISSSGGRTYYADSVKGRFTISRDNAKNTVYLKMNSLIPDDPAVYYCAGKIVSRYRVIYDYWGQGTQVTVSS,high polyreactivity
4,QVQLVESGGGLVQAGGSLRLSCAASALTFFYYAMGWYRQAPGKERELVAAISWSGGRTYYADSVKGRFTISRDNAKNTVYLQMNSLKPEDTAVYYCSADYITAHSSYSTYGYWGQGTQVTVSS,low polyreactivity
5,QVQLVESGGGLVQAGGSLRLSCAASARIIGTYAMGWYRQATGKERELVAASTRGGTTYYADSVKGRFTISRDNAKNTVYLQMNSLIPEDTAVYYCATGPAIRYDYWGQGTQVTVSS,low polyreactivity
6,QVQLVESGGGLVQAGGSLRLSCAASARIIYSNAMGWYRQAPGKERELVATISTGGSTYADSVKGRFTISRDNAKNTVYLQINSLKPEDTAVYYCAVDEWRWRVGAVAYYYWGQGTQVTVSS,low polyreactivity
7,QVQLVESGGGLVQAGGSLRLSCAASARILRRNAMGWYRQAPGKEREFVAAITWRGGSTYYADSVKGRFTISRDNAKNTVYLQMNSLKPEDTAVYYCAADTYSVEYVLPYYYWGQGTQVTVSS,high polyreactivity
8,QVQLVESGGGLVQAGGSLRLSCAASARNFGYYAMGWYRPAPGKERELVAAISSGGNTYYADSVKGRFTISRDNAKNTVYLQMNSLKPEDTAVYYCNVVYVGWQYGYDYWGQGTQVTVSS,low polyreactivity
9,QVQLVESGGGLVQAGGSLRLSCAASARTFSRSALGWARQAPGKERELVAAISWSGGSTYYADSVKGRFTISRDKAKNSVYLQMNSLNPEDTAVYYCAAYSRWLPAYDYWGQGTQVTVSS,high polyreactivity
10,QVQLVESGGGLVQAGGSLRLSCAASARTYGANAMGRYRQAPGKERELVAAISYHGTRTYYADSVKGRFTISRDNAKNTVYLQMNSLKPEDTAVYYCAAVCKPGVYQEGDEWGQGTQVTVSS,high polyreactivity
11,QVQLVESGGGLVQAGGSLRLSCAASASIFRYYAMGWYRQAPGKERELVAAISYSGGSTYYADSVKGRFTISRDNAKNTVYLQMNSLKPEDTAVYYCAVPLICVDGYAYDYWGQGTQVTVSS,low polyreactivity
12,QVQLVESGGGLVQAGGSLRLSCAASASIFYQNAMGWYRQAPGKERELVAAISSAGSTYYADSVKGRFTISRDNAKNTVYLQMNSVKPEDTAVYYLLRGQGTQVTVSS,low polyreactivity
13,QVQLVESGGGLVQAGGSLRLSCAASASIFYRYAMGWFRQAPGKERELVAAISWRVTSTYYADSVKGRFTISRDNSKNTVYLQMNSLKPEDTAVYYCATAGTYTGGEGYWGQGTQVTVSS,high polyreactivity
14,QVQLVESGGGLVQAGGSLRLSCAASASTFGSYAMGWYRQAPGKERELVAAISRAGSTYADSVKGRFTISRDNAKNTVYLQMNSLKTEDTAVYYCAKRDYALYYGYDYWGQGTQVTVSS,low polyreactivity
15,QVQLVESGGGLVQAGGSLRLSCAASASTFVYNAKGWYRQAPGKERELVASITRSGSSTYYADSVKGRFTISRDNAKNTVYLQMNSLKPEDTAVYYCDVRYSVLSNYRYYYWGQGTQVTVSS,low polyreactivity
16,QVQLVESGGGLVQAGGSLRLSCAASASTLYSYAMGWYRQAPGKEREFVAAITSDDGSKYYADSVKGRFTISRDNAKNTVYLQMNSLKQEDTAVYYCATAASVEYNYWGEGTQVTVSS,low polyreactivity
